Measured values taken from the DeepSol protein solubility set.

test: soluble on expression in E. coli; label from the status in PepcDB or PDB records

Row | Sequence | soluble on expression in E. coli
1 | MKKIVTATIATAGLATIAFAGHDAQAAEQNNNGYNSNDAQSYSYTYTIDAQGNYHYTWTGNWNPSQLTQNNTYYYNNYNTYSYNNASYNNYYNHSYQYNNYTNNSQTATNNYYTGGSGASYSTTSNNVHVTTTAAPSSNGRSISNGYASGSNLYTSGQCTYYVFDRVGGKIGSTWGNASNWANAAASSGYTVNNTPKVGAIMQTTQGYYGHVAYVEGVNSNGSVRVSEMNYGHGAGVVTSRTISANQAGSYNFIHLEHHHHHH | not soluble
2 | MKKKKLFLGTIISCVVLALSACGSSDNVVTSKVGNITEKELSKELRQKYGESTLYQMVLSKALLDKYKVSDEEAKKQVEEAKDKMGDNFKSTLEQVGLKNEDELKEKMKPEIAFEKAIKATVTEKDVKDNYKPEMKVSHILVKDEKTAKEVKEKVNNGEDFAALAKQYSEDTGSKEQGGEITGFAPGQTVKEFEEAAYKLDAGQVSEPVKTTYGYHIIKVTDKKELKPFDEVKDSIRKDIEQQRLQDTTGKWKQQVVNELLKDADIKVNDKEFKNTFEFLEKK | not soluble
3 | MKKLAVLFMCAAMLASCDFKGGSKDLKAENDSLLMELTQRNAELDDMMGTFNEVQEGFRKINAAESRVDLQRGTITENSASAKQQIASDIEFISKQMEENKAQIAKLEAQLKNSKYNSTQMKKAVEALTAELKAKQQRIEELQTELASKNIRIQELDAAVSDLSAAKESLAAENEAKAKTVAEQDKSLNAAWFVFGTKSELKAQKILQSGDVLKSADFNKDYFTQIDIRTTKEIKLYSKRAELLTTHPTGSYELVKDDKGQLTLKITNPAEFWSVSRYLVIQVK | not soluble
4 | MKKLFFIMAMSVCAFTAQAQTTSGIRVGLNMTSATGKYNDLMADQDYNNKSYMGYSIHYFIDVPVIGNFSIQPAVGLSMKGITYEYDKFTTKKSHRLDLDSYKKYDVTESRGTSVTQKHNLGYLDVPILFAYALPLSESFRVQLGVGPYFSYGLFGKFKYESDKYLTVSPDKYGENKHTITKDDYPSFGKNDDADDPKGNINRFDWGIAVQGSIYWKRLFLNVAYQKGLKSANITDEKNEGKDKLALSNLSLGLGFIF | not soluble
5 | MKKRIIPIFVPHKGCPHDCIFCNQKKITGVSTDVTSEDARNIIEECLETIDKDADVEIAFFGGSFTAIDIDIQKSLLSVAKEYVEKGLVKDIRMSTRPDCIDEDILSMLKEYKTSIIELGVQSLDEKVLLDSIRGHQSEIVYKSSKMIKNSGIKLGLQMMIGLPADTEEKCIFTAKKFVELKPDCVRVYPTLVVKDTGLEKLMEQNKYNPFTLEESVNIVKKVLVLFYVNNINVIRVGLQATDDIQIGKAVLAGPYHPAFRELVEADMIKDYLEFVILQNKNIKQMLVKSNKKNISKIIGNKKTNVKYMEEKFGVLLKTQESDLDINQLEIVLDGKSLISANMRDIHRKLYDIYDL | not soluble
6 | MKKSLGARTLAYPTPLFLVGTYDRDSRPNIMAAAWAGICCSQPPSIAVSLRKATYTYRSITERGAFTISIPSRAYVRHADYAGIYSGENEDKFASLGLTPVPGEHVDAPYVGEFPMAIELKLIHQIEIGLHTQFIGEIMDVKVDESCLRDDGLPDINKVDPVIFAPVSREYYAVGEFLAKAFSAGKGLRS | soluble
7 | MKKTFEKVYHLKLSIKGITPQIWRRIQVPENYTFLDLHKAIQAVMDWEDYHLHEFEMVNPKTGMLDKIGAEGDDFDAFGGPLVSEKKAKLSDYFTLENKEALYTYDFGDNWQVKVRLEKILPRKEGVEYPICTAGKRAAVPEDSGGVWGYEEMLEVLKDSEHEEYEDTVLWLGDDFDPEYFDPKDVSF | soluble
8 | MKKVELLAPAGNLEKLKMAVLYGADAVYLGGEEFSLRAYAENFTLDELKAGVEFAHSKGKKVYVTINIFPHNDDLKKIPEYIKEVAGIGVDAIILSDPGILSIVKEIAPDMEIHLSTQANNTNFMSARFWHNHGVKRIILARELSLEEIREIREKTPDSLELEVFVHGAMCISYSGRCLLSNYMAGRDSNRGLCAHPCRWKYYLMEEKRPGEYYPVYENERGTFIFNSRDLCMIEHIPELVESGVSSFKIEGRMKSSFYVATVVKAYREAIDAYYEDKDNYKFDPRLLEEVCKVSHREFTTGFFFNKPGPKDQIYATSSYIREYDFVGVVQKYDKATKIATVEQRNRMYKGEEIEVVNPKGNFFVQKIEWMKNADGEDIDVAPHPQMTVYMPMKEDVEEFAMLRRKSSPNK | soluble
9 | MKKVFDVWDVETAKRFLEIIKDEPIYYPALIALHTGMRAGEILSLKWCDVNFETRVISIVKSERKNRGLKTVNLKTKTSKRAVYMNDILYKELKNLYEITKPKPDDFVCPRLPTGNLTVNYLSRKFKKLVKKHNFPLIRFHDLRHTFATLMLSLGVNTKIVAEILGHSDIKLTADTYSHVLPTMQEEAMKEFVKLWKLEHHHHHH | soluble
10 | MKKYDVIVVGAGISGLLAALTLSKHGKKVLVLEKGQHLGGNCNSYIVDGYQVDTGAHAITHLIEGPLPRLMDNYFDFLPVFEDYGYYYVRTENALIKVPSNLKDFVTFDVLPRKDRLILSQTLTKALTLSSFGIDLSDQSVYDFLPKNLCKDTYDFVNTISAFLSGKSMKETSAQRILSGSSFVRDSITQEQFDAMIGKFEPKKRQSTESILSSILPYHLHASLQARVDKVAQPFTSLERLATNKVNYSQGYPRKGLKALLNAILYSFPDTVEIKSECEVTGILVESEKVYGVEADEIYLADLIIYTGFATDLPELIKDLPQAYIEELKGIVHTKSLTIWLGLKEELPEFKYTGSEIWFKDFAYWAMPISNYDPSLAPKDKQLVGFSFVIDSEQTEEHELKKAYDTIFRALPNIEKYIDMQHEQIMIPEKAAVTINGKFSDIRTPVKNLYIAGTDTDRRSMGITRAAYSIIELLKILNEDGNLHLEHHHHHH | not soluble
11 | MKKYTCTVCGYIYNPEDGDPDNGVNPGTDFKDIPDDWVCPLCGGGKDQFEEVEE | soluble
12 | MKLEIFSWWAGDEGPALEALIRLYKQKYPGVEVINATVTGGAGVNARAVLKTRMLGGDPPDTFQVHAGMELIGTWVVANRMEDLSALFRQEGWLQAFPKGLIDLISYKGGIWSVPVNIHRSNVMWYLPAKLKGWGVNPPRTWDKFLATCQTLKQKGLEAPLALGENWTQQHLWESVALAVLGPDDWNNLWNGKLKFTDPKAVRAWEVFGRVLDCANKDAAGLSWQQAVDRVVQGKAAFNIMGDWAAGYMTTTLKLKPGTDFAWAPSPGTQGVFMMLSDSFGLPKGAKNRQNAINWLRLVGSKEGQDTSNPLKGSIAARLDSDPSKYNAYGQSAMRDWRSNRIVGSLVHGAVAPESFMSQFGTVMEIFLQTRNPQAAANAAQAIADQVGLGRLGQHHHHHH | soluble
13 | MKLEYLIDQAAGQPKKTVAVAVAEDHEVIEAVAKAIKLQLAQFRLYGNQEKIMGMLQEHGLQTSEHVEVIAAMSSAEAAELSVKAVRNGEADVLMKGNIPTANILKAVLNKEWGLRKGSVLSHVAAFEVPNYDRLIFVTDAAMNIAPDVTQKAAIIQNTVEVARAIGIDLPKVAPIAAVEVVNPAMQATIDAAMLTQMNRRGQIKDCIVDGPLALDNAVSQIAAEHKGIVSDVAGKADILLVPTIEAGNVLYKSLVYFADAKVGAMIAGAKAPIVLTSRADSAETKVYSLALAVATASK | soluble
14 | MKLKITLYSVCLLMLLAACQQDGPTPEPSVGSRTVLVYMIAQNSLAPLASADIEEMKEGMRQVDATSGNLLVYIDDYSAPRLIRLGKDKKGKVVEETIENYPEQNSADANVMKKVISTAFNQYKAEKYGMVFWSHGEGWIPSPAKTRWFGQDGNNYMDIADLHAALQVAPDLDFLFFDACFMEAVEVAYALRDCGSYLISSPTEIPGPGAPYQTVVPAMFSAENAALKIASCYYDYYQSRYNDGIGMSNEDWTGGVSVGVAKMSELENLAVATSKVLPRYITGKQNFDLSGVMCYDRRTDKQYYYDLDRFIYQITAGNGDYDSWREAFDKVMVYWKSTPRNYSAYAGMFTMNQDAKGLSTYIPRMSAPSLNTSYQQTEWYKVSGWADTGWYKNLEHHHHHH | not soluble
15 | MKLLSTYRLQPMKFSEIRNRLDYFVELGVTHLYLSPVLKARPGSTHGYDVVDYNTINDELGGEEEYIRLIDEAKSKGLGIIQDIVPNHMAVHHTNWRLMDVLKKGRHSRYYNYFDFYEEEEKIRIPILGDRNFKITYVNDEPYLDYYGNLFPINDEGRNYLNDIEKLLKVQYYELVDWRDYPSYRRFFAVNELIAVRQELEWVFEDSHSKILSFEVDGYRIDHIDGLFKPEEYLRRLKNKIGNKHIFVEKILSIGEKLRWDFIDGTTGYDFLNYSNLLFTDNEDKMTEIYKNILDIDLDELVKETKKKIIDTLFKHDIERISMMLGVNYEEIKEFLSCLKVYRTYITENDFRDEEIIRNCSQKVYESMKKNVTAFMKLQQYMPAVFAKAYEDTVLFIYNRLISLNEVGSDLHYYSISCDKFHEFNLKRVGTLSFNATSTHDTKFSEDVRMRISAISEIPDEWAKKVNEWHNILNPNIDKNDEYRLYQTIVGSFDGFNNEYKERLKAHMIKALREAKVHTDWVNVNTEYEKKMTYLIDKMFNNEKFMESFLEFESKIDKMGKVKSLSLVALKITSPGVADFYQGLENFRYLLTDPDNRRPVVFSELPKRYEEGLFNNGRIKAYVTKVLLNLRKSMKDFFINSEYKPLKLQKGLCGFMRGDKVLVIVKTLNRDYDIEIDGEYTDVITDETVRGRVKVDKLPLILVK | soluble
16 | MKLPPSLICPPLLALYRVWCRTLNFEEEGRAAVDVLWQERKPMVFALWHDELFPLMHVRRELEIVTVVSQSRDGEYLARVLQGLGLHTARGSSSRGGVKALLQAARMMQKQNLCGCVTVDGPRGPRHRVKEGAIFLAHRAKAPIVPIRLFMSRTKVFAKAWDKFQLPLPGSDVRVVFGAPYHTAENALESPRLEDERQRLEAKLEALALEHHHHHH | soluble
17 | MKLTTLGSWGAYPYQDAGTTSYLVTGHDGFQLLMDAGSRALNELEKEISPLDLDAVIISHYHPDHVADLGVLRHYFQLYPKHLWQPKVLPIYGHDEDRNEFAKLSIPDVSEGRAYDVTGVEQIGSFDITFLKTVHPVVCYAFRIVERATGQVLVFTGDSGYFEGLADFAKEADLFLADVYLYEGNENHMAHLTSKEAGLMASQAGVKKLVLTHMPPVPPDGINSKNHLEVLRQETQAYAGNIPVDLALPHKSWNLGSLS | not soluble
18 | MKLVCISDTHSLHRRIPEIPDGDVLIHAGDSLGQGSLENIEDLNDWLGTLPHRHKIVIAGNHDWAFQEMPGEARTALSNAVYLEDSGVEIEGNRFWGSPWTPTFMDWAFMLERGEPLYQKWQLVPDNTDVLITHGPPKGIGDEANLGFKCQNVGCVDLLARIHQLSLKAHIFGHIHEGYGEYLRGKTRLINASTCTARYEPRNAPIVVDVLEHHHHHH | not soluble
19 | MKLVGSYTSPFVRKLSILLLEKGITFEFINELPYNADNGVAQFNPLGKVPVLVTEEGECWFDSPIIAEYIELMNVAPAMLPRDPLESLRVRKIEALADGIMDAGLVSVREQARPAAQQSEDELLRQREKINRSLDVLEGYLVDGTLKTDTVNLATIAIACAVGYLNFRRVAPGWCVDRPHLVKLVENLFSRESFARTEPPKA | soluble
20 | MKLYLIGLGPGDPELLTLKALRLIQRLPVLFYPKEEGREPVALGIARPFLPEGKPLLPLPLFTGGDPKEAERARREAARRVREALSRYGEGGYLVLGDSLLYASPLNLLPHLEGVAVEAVPGISAHQLAAASLLKPIALGEEGFAAVTGLGPVDPEGLDRFQSVFVYKAKDLEALERAFPDREGWAFLRLGMPGERVLPLGAAKGVARDYWTLVGLWRKGGEG | soluble
